Data reported in US8247531B2, “Mutant epidermal growth factor polypeptides, nucleic acids, and uses therefor” (priority 2006, dated 2012).

Assays:
EGFR = EGFR (Homo sapiens, UniProt P00533); conditions: Mullenbach et al., Protein Eng 11:473-480, 1998; cited from earlier work
[1] = biological target: T1, EGFR on NR6 fibroblast cells (Homo sapiens, UniProt P00533); assay: Competition binding of soluble EGF to EGFR on NR6 fibroblast cells (flow cytometry, Alexa-488 labeled wt EGF); conditions: competition with Alexa-488 labeled wt EGF, 6 hr at 4° C., read-out: Equilibrium dissociation constants
T1 construct: expressed in transfected cells; host or cells: NR6 fibroblast cells
Procedure: (§1) Fluorescence intensity of cell surface labeling was measured by flow cytometry.
as §1
This mutant was tested using one of the binding assays described herein in which binding to EGFR expressed on cells is measured. […] Fluorescence intensity of cell surface labeling was measured by flow cytometry.

G12Q: previously described EGF containing a G12Q mutation (Mullenbach et al.) (NSDSECPLSHDQYCLHDGVCMYIEALDKYACNCVVGYIGERCQYRDLKWWELR)
increase in affinity for EGFR over wt EGF (previous data) (EGFR): 5 fold

NSYSECPLSYDGYCLNDGVCRYIEALDRYACNCVVGYIGERCQYRDLKWWWLR (Mutant of human epidermal growth factor) [clone 107, second generation EGF mutant from the SOSM library]
Kd [1]: 130 ± 10 pM
